Laboratory results taken from PMC9365671, “Synergistic autoinhibition and activation mechanisms control kinesin-1 motor activity” (Cell reports, 2022).

Assays:
Assay in all cases: quantitative Coomassie blue staining of the co-purified complex; KIF5-mScarlet-StrepII and His-FLAG-KLC1 co-expressed in Sf9, purified on Streptactin XT and by SEC
Settings in all cases: partners not purified
[1] = biological target: T1, full-length human KIF5A-mScarlet-StrepII (human, UniProt Q12840 1-1032)
T1 construct: kinesin heavy chain KIF5A, human, cDNA BC146670, full length; 2x Prescission protease sites lie between KIF5A and mScarlet; also called KIF5A dimer; KHC; source: Sf9 (baculovirus), purified (Streptactin XT, SEC); also co-expressed with KLC1 and co-purified; not shown: mScarlet, C-terminal, kept
T1 sequence (looked up): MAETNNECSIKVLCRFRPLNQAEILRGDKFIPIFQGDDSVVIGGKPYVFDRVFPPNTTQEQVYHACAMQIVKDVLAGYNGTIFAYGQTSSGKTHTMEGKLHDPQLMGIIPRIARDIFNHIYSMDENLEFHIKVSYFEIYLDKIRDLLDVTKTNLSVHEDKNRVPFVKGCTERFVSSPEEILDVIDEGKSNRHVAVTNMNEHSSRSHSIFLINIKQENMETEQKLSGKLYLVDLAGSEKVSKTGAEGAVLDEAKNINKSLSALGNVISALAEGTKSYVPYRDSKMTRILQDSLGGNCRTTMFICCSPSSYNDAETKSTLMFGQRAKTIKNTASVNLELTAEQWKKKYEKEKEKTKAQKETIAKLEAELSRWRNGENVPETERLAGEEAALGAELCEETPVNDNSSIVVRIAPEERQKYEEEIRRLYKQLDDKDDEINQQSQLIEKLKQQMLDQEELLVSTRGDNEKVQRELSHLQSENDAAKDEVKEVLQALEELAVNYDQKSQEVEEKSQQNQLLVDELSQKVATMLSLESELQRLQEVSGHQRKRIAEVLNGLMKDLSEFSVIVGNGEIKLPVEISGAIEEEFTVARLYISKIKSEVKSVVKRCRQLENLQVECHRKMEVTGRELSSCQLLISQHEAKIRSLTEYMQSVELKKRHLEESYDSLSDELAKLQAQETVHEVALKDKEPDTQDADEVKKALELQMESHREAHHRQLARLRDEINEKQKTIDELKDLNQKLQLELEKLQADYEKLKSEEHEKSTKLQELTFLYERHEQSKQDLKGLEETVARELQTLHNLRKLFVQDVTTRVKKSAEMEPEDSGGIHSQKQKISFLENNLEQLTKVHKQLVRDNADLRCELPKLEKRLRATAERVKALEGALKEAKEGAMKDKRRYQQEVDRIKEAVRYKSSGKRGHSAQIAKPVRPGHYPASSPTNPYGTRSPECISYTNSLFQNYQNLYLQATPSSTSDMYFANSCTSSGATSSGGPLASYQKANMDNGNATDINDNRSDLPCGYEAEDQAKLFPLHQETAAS

[2] = biological target: T2, full-length human KIF5B-mScarlet-StrepII (human, UniProt P33176 1-963)
T2 construct: kinesin heavy chain KIF5B, human, cDNA BC126281, full length (aa 1-963); 2x Prescission protease sites lie between KIF5B and mScarlet; also called KIF5B-WT; wild-type KIF5B; source: Sf9 (baculovirus), purified (Streptactin XT, SEC); also co-expressed with KLC1 and co-purified; not shown: mScarlet, C-terminal, kept
T2 sequence (looked up): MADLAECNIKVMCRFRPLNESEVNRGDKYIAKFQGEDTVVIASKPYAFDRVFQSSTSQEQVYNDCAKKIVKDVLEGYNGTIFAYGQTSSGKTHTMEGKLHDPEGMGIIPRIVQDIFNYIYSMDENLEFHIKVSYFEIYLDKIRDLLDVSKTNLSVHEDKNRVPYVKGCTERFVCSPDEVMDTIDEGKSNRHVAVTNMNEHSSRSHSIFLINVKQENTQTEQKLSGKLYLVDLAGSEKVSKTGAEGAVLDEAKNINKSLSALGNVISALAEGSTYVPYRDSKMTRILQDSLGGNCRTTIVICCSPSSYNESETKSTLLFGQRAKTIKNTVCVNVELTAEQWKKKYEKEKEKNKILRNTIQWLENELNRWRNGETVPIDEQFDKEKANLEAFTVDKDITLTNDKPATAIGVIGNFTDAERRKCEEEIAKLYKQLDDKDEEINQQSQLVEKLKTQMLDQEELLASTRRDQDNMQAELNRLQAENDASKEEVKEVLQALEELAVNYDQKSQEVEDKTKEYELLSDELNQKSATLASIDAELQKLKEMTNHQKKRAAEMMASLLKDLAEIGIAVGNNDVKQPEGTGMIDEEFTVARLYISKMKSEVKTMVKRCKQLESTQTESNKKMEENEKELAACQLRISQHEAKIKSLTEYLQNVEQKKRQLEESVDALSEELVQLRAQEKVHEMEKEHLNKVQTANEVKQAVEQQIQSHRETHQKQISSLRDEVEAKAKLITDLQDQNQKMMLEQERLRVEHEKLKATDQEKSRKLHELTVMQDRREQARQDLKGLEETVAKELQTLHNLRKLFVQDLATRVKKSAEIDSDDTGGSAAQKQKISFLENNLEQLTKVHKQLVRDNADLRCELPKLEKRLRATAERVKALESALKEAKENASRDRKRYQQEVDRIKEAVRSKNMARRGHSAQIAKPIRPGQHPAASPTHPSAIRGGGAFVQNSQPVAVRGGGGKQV

[3] = biological target: T3, full-length human KIF5C-mScarlet-StrepII (human, UniProt O60282 1-957)
T3 construct: kinesin heavy chain KIF5C, human, cDNA BC110287, full length; 2x Prescission protease sites lie between KIF5C and mScarlet; also called KHC; source: Sf9 (baculovirus), purified (Streptactin XT, SEC); also co-expressed with KLC1 and co-purified; not shown: mScarlet, C-terminal, kept
T3 sequence (looked up): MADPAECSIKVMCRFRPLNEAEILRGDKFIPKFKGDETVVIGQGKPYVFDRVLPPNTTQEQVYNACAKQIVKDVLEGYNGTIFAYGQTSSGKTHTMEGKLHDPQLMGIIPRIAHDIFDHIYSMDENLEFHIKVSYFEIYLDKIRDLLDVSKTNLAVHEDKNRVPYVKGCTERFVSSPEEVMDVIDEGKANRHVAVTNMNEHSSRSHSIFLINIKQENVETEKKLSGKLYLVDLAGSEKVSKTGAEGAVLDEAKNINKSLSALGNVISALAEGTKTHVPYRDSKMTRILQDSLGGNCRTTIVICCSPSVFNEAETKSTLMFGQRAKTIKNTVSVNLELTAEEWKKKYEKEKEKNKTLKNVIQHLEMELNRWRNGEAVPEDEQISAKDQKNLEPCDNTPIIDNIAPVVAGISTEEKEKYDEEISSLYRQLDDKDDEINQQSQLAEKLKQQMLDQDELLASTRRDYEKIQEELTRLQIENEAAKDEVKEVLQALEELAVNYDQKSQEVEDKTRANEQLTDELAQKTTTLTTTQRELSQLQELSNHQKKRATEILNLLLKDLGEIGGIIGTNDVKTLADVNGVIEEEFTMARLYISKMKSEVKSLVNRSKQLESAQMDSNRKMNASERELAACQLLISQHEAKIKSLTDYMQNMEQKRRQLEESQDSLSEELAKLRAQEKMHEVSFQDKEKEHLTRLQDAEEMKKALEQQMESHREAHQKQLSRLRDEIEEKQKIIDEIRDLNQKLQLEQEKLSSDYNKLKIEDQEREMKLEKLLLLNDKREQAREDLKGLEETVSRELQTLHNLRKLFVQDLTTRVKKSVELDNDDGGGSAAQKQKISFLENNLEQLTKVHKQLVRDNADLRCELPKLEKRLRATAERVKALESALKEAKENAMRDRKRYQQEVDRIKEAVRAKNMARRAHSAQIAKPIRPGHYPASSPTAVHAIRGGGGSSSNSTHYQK

Measured: stoichiometry N

B1: 6xHis-FLAG-human KLC1 (co-expressed with KIF5) (natural protein, UniProt Q07866 1-573, looked up)
chain: MYDNMSTMVYIKEDKLEKLTQDEIISKTKQVIQGLEALKNEHNSILQSLLETLKCLKKDDESNLVEEKSNMIRKSLEMLELGLSEAQVMMALSNHLNAVESEKQKLRAQVRRLCQENQWLRDELANTQQKLQKSEQSVAQLEEEKKHLEFMNQLKKYDDDISPSEDKDTDSTKEPLDDLFPNDEDDPGQGIQQQHSSAAAAAQQGGYEIPARLRTLHNLVIQYASQGRYEVAVPLCKQALEDLEKTSGHDHPDVATMLNILALVYRDQNKYKDAANLLNDALAIREKTLGKDHPAVAATLNNLAVLYGKRGKYKEAEPLCKRALEIREKVLGKDHPDVAKQLNNLALLCQNQGKYEEVEYYYQRALEIYQTKLGPDDPNVAKTKNNLASCYLKQGKFKQAETLYKEILTRAHEREFGSVDDENKPIWMHAEEREECKGKQKDGTSFGEYGGWYKACKVDSPTVTTTLKNLGALYRRQGKFEAAETLEEAAMRSRKQGLDNVHKQRVAEVLNDPENMEKRRSRESLNVDVVKYESGPDGGEEVSMSVEWNGGVSGRASFCGKRQQQQWPGRRHR
notes: kinesin light chain 1, human, cDNA BC008881; also called kinesin light chain; source: Sf9, co-expressed with KIF5 from a multi-gene baculovirus, co-purified (Streptactin XT, SEC)
~0.8 KLC1 per KHC: all assays above
